Here are results for four molecules from patent publication US20060035302A1, “Kinase substrates with multiple phosphorylation sites” (Applera Corporation, priority 2004, published 2006).

The conditions of data set [1]: cited from earlier work.
Data set [2] can be described thus: Net charge of substrate from its charged groups. In kind it is physicochemical. As to conditions: pH 7.6; unphosphorylated substrate. An excerpt: The net charge of the substrate can be established by including an appropriate number of negatively and positively charged groups in the substrate. For example, to establish a net neutral charge (net charge=0), the substrate is designed to contain an equal number of positively and negatively charged groups. […] Aspartate and glutamate contain carboxyl side chains having a single negative charge. A phosphoserine residue carries two negative charges on a phosphate group. […] In addition, the fluorescent moiety may also contain charged groups that should be considered to obtain a particular net charge of the substrate.
This is offset by the guanidinium groups in the two arginine residues, for a total of two positive charges. Thus, the net charge of the compound is about 0 at pH 7.6.

The next data set has as its target protein kinase p38βII (Homo sapiens, UniProt Q15759). Put plainly: Fluorogenic protein kinase assay, real-time fluorescence in 384-well plates. In kind it is biochemical. The conditions noted are these: substrate 8 μM; 10 and 100 μM ATP; compared with the kinase substrate with one recognition moiety (FIGS. 6A-6B). The procedure: Kinase assays were performed using Coming 384-well, black, non-binding surface (NBS), microwell plates. Fluorescence was read in real time using a […] Gemini XS plate reader, with excitation and emission set at 500 and 550 respectively. The plate was read every minute for one hour at ambient temperature
Concentrations of dye-labeled peptides were determined by dilution of the purified peptides into dimethylformamide (200 μL) with 1 M NaOH (5 μL) and measuring the absorbance of either 5-carboxy-2′,7′-dipyridyl-sulfonefluorescein (i.e. dye2) at its absorbance maximum (548 nm) or 2′,7′,4,7-tetachloro-5-carboxy fluorescein (i.e. 2′,7′-dichloro-5-carboxy-4,7-dichlorofluorescein or “tet”) at its absorbance maximum (541 nm). The extinction coefficient of both dyes was assumed to be 80,000 cm^−1M^−1.
[…] The solution was pipetted into wells of a 384-well plate ([…] per well). Varying concentrations of ATP (final conc 10 and 100 μM) were added to the wells to initiate the kinase reaction. The plate was read at 500 nm excitation, 550 nm emission, each minute for 1 hour. The signal to background ratio for the kinase substrate with two recognition moieties (compound 2) was improved as compared to the signal to background ratio for the kinase substrate with one recognition moiety.

Data set [3] concerns the target T1, C11-OOK(dye2)RRIPLSPLSPOOK(C11)-amide.
T1 chain: KRRIPLSPLSPK

Data set [4] has as its target T2, C11OOK(dye 2)RRIPLSPOOK(C11)NH2.
T2 chain: KRRIPLSPK

[ ]: non-standard residue; d: D form. The star is where a group is joined. dye2 = 5-carboxy-2′,7′-dipyridyl-sulfonefluorescein (Dye 2); Undecanoyl = CCCCCCCCCCC(=O)*; code O = not defined here

Take `N[C@@H](CS)C(=O)O` [Cysteine (C), Cysteine]: in data set [1], the “pK / pKa of side chain” value is reported as “about 8”.

As to `N[C@@H](Cc1c[nH]cn1)C(=O)O` [Histidine (H), Histidine], in data set [1], the “pK / pKa of side chain” value is “about 7”.

For “C11—OOK(dye2)RRIPLSPLSPOOK(C11)-amide ({Undecanoyl-code O-code O}-K(dye2)RRIPLSPLSP[code O][code O]K(Undecanoyl)-NH2; reading uncertain; also: printed as C11—OOK(dye2)RRIPLSPLSPOOK(C11)-amide) [compound 2, kinase substrate for p38βII; two recognition moieties, two hydrophobic moieties, Dye2]”, the net charge entry in data set [2] is given as “about 0”. The “signal to background ratio” value in the data set with protein kinase p38βII was “improved signal to background ratio”.

B1: protein kinase p38βII (protein)
chain: MSGPRAGFYRQELNKTVWEVPQRLQGLRPVGSGAYGSVCSAYDARLRQKVAVKKLSRPFQSLIHARRTYRELRLLKHLKHENVIGLLDVFTPATSIEDFSEVYLVTTLMGADLNNIVKCQALSDEHVQFLVYQLLRGLKYIHSAGIIHRDLKPSNVAVNEDCELRILDFGLARQADEEMTGYVATRWYRAPEIMLNWMHYNQTVDIWSVGCIMAELLQGKALFPGSDYIDQLKRIMEVVGTPSPEVLAKISSEHARTYIQSLPPMPQKDLSSIFRGANPLAIDLLGRMLVLDSDQRVSAAEALAHAYFSQYHDPEDEPEAEPYDESVEAKERTLEEWKELTYQEVLSFKPPEPPKPPGSLEIEQ
On to B1, for which, in data set [3], the “signal to background ratio (fluorescence kinase assay, 10 and 100 µM ATP)” value was “The signal to background ratio for the kinase substrate with two recognition moieties (compound 2) was improved as compared to the signal to background ratio for the kinase substrate with one recognition moiety”; the “signal to background ratio, fold improvement over the substrate with one recognition moiety” value is on record as “improved the signal to background ratio 3 to 5 fold”. In data set [4], the “rate of reaction / signal to background ratio (fluorescence kinase assay, 10 and 100 µM ATP)” value was “comprising two protein kinase recognition moieties has an improved signal to background ratio as compared to the kinase substrate comprising one protein kinase recognition moiety, C11OOK(dye 2)RRIPLSPOOK(C11)NH2”.
